From patent US20130217572A1, “SPECIFIC DELIVERY OF AGROCHEMICALS” (VRIJE UNIVERSITEIT BRUSSEL, priority 2010, published 2013)
Each block holds one molecule with its values, some of them ahead of it.

Experiments:
potato lectin (Sigma) [1] = biological target: T1, potato lectin (Sigma) (potato, UniProt Q9S8M0 23-323); experiment: microcapsule retention; K: amine capsules, BS3 two-step, 1 ug VHH/cm2; potato lectin coat 1 ug/ml; 10% coverage
T1 construct: Bought glycoprotein, coated on ELISA plates
T1 sequence (looked up): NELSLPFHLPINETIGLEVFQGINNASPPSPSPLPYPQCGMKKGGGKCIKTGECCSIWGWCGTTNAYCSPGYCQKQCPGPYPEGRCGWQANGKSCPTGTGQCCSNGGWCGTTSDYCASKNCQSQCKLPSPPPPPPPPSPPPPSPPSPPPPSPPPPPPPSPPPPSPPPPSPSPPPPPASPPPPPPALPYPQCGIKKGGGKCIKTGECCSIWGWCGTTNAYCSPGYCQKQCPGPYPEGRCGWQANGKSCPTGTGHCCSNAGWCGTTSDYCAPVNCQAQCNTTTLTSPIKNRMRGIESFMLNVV

potato lectin (Sigma) [2] = biological target: T1, potato lectin (Sigma); experiment: microcapsule retention; H: amine capsules, BS3 one-step, 0.1 ug VHH/cm2; potato lectin coat 1 ug/ml; 10% coverage
potato lectin (Sigma) [3] = biological target: T1, potato lectin (Sigma); experiment: microcapsule retention; H: amine capsules, BS3 one-step, 0.1 ug VHH/cm2; potato lectin coat 100 ug/ml; 10% coverage
potato lectin (Sigma) [4] = biological target: T1, potato lectin (Sigma); experiment: microcapsule retention; C: carboxyl capsules, EDC/Sulfo-NHS, 1 ug VHH/cm2; potato lectin coat 10 ug/ml; 10% coverage
potato leaf surface = experiment: VHH binding to leaf discs (microscopy); design: species or system potato (variety Désirée); details: 5 μg/ml in PBS, anti-histidine Alexa-488 detection
Protocol: VHH binding to non-fixed leaf discs of potato (variety Désirée), black nightshade, grass, wheat or azalea was investigated. For comparison, binding of CBM3a to non-fixed leaf discs of potato (variety Désirée) was analyzed in parallel. Leaf discs were prepared by punching a fresh potato leaf with a 5 mm belt hole puncher tool. Leaf discs were put immediately in wells of a 96-well plate containing 200 μl per well 5% MPBS or PBS, and incubated for 30 minutes. Leaf discs were transferred to solutions containing 5 μg/ml VHH antibody fragment, respectively 5 μg/ml CBM3a in 2% MPBS or PBS and incubated for 60-90 minutes. Unbound VHH or CBM3a proteins were removed by washing three times with 2% MPBS or PBS. Bound VHH or CBM3a proteins were detected with incubation with monoclonal mouse anti-histidine antibodies directly conjugated with Alexa-488 fluorescent dye (Abd Serotec) in 1% MPBS for 1 hour. Unbound antibodies were removed by washing three times with PBS. Leaf discs were put on glass slides, covered with cover slips, and analyzed by microscopy or on a macrozoom microscope system (Nikon) or a SP5 confocal microscope system (Leica).

microcapsule counts (microcapsules) (potato lectin (Sigma) [1]): 215
microcapsule counts (microcapsules) (potato lectin (Sigma) [2]): 36
microcapsule counts (microcapsules) (potato lectin (Sigma) [3]): 225
microcapsule counts (microcapsules) (potato lectin (Sigma) [4]): 50
Molecule: Control VHH

B1: VHH 3E6 (VHH)
VHH: QVQLQESGGGLVQPGGTLSLSCAASGFNVRWYGMGWFRQAPGKEREGVACISALQETTAYADSVKGRFTLSRDNPKNTLSLQMNNLQPEDTGVYYCATTDCDDSSRMTYTSYLGQGTQVTVSS
notes: also called Monovalent VHH 3E6
binding to native potato leaf surface (potato leaf surface): binding leaf surface, stomata, glandular trichomes, and leaf hairs
binding to native potato leaf surface (potato leaf surface; listed as 3E6): clearly binding to trichomes, stomata and cuticle
